Target: portions of the MUC16 extracellular domain (ECD) (UniProt Q8NEV4)
Experiment: surface plasmon resonance with portions of the MUC16 ECD

Kd: 0.116 nM
B1: A117C thio hu anti-MUC16 3A5 humanized variant (antibody, human IgG1, kappa, V domains shown)
VH: EVQLVESGGGLVQPGGSLRLSCAASGYSITNDYAWNWVRQAPGKGLEWVGYISYSGYTTYNPSLKSRFTISRDTSKNTLYLQMNSLRAEDTAVYYCARWTSGLDYWGQGTLVTVSS
VL: DIQMTQSPSSLSASVGDRVTITCKASDLIHNWLAWYQQKPGKAPKLLIYGATSLETGVPSRFSGSGSGTDFTLTISSLQPEDFATYYCQQYWTTPFTFGQGTKVEIKR
notes: Full-length IgG expressed in CHO cells; Kabat A114C, Eu A118C) change; also called thio hu anti-MUC16 HC A117C 3A5; A117C thio hu 3A5
